Experimental data from publication doi:10.1101/2022.06.12.495819 (bioRxiv, 2022).

Key:
[1] = biological target: Tomato SlDXS1, truncated version lacking the N-terminal plastid targeting peptide, 6xHis-tagged (Solanum lycopersicum (tomato)); assay: dynamic light scattering
[2] = biological target: Tomato SlDXS1, truncated version lacking the N-terminal plastid targeting peptide, 6xHis-tagged (Solanum lycopersicum (tomato)); assay: cross-linking
[3] = biological target: the molecule itself; assay: cross-linking
[4] = biological target: the molecule itself; assay: SDS-PAGE with non-denaturing loading buffer and immunoblot

Tomato SlDXS1, truncated version lacking the N-terminal plastid targeting peptide, 6xHis-tagged (enzyme)
stoichiometry N [1]: 2
stoichiometry N [2]: 2

B1: Escherichia coli deoxyxylulose 5-phosphate synthase (EcDXS), 6xHis-tagged, full length (enzyme)
chain: MSFDIAKYPTLALVDSTQELRLLPKESLPKLCDELRRYLLDSVSRSSGHFASGLGTVELTVALHYVYNTPFDQLIWDVGHQAYPHKILTGRRDKIGTIRQKGGLHPFPWRGESEYDVLSVGHSSTSISAGIGIAVAAEKEGKNRRTVCVIGDGAITAGMAFEAMNHAGDIRPDMLVILNDNEMSISENVGALNNHLAQLLSGKLYSSLREGGKKVFSGVPPIKELLKRTEEHIKGMVVPGTLFEELGFNYIGPVDGHDVLGLITTLKNMRDLKGPQFLHIMTKKGRGYEPAEKDPITFHAVPKFDPSSGCLPKSSGGLPSYSKIFGDWLCETAAKDNKLMAITPAMREGSGMVEFSRKFPDRYFDVAIAEQHAVTFAAGLAIGGYKPIVAIYSTFLQRAYDQVLHDVAIQKLPVLFAIDRAGIVGADGQTHQGAFDLSYLRCIPEMVIMTPSDENECRQMLYTGYHYNDGPSAVRYPRGNAVGVELTPLEKLPIGKGIVKRRGEKLAILNFGTLMPEAAKVAESLNATLVDMRFVKPLDEALILEMAASHEALVTVEENAIMGGAGSGVNEVLMAHRKPVPVLNIGLPDFFIPQGTQEEMRAELGLDAAGMEAKIKAWLA
stoichiometry N [3]: 2

B2: Tomato SlDXS1, full-length protein with C-terminal myc tag (pGWB420-SlDXS1), expressed in N. benthamiana leaves (enzyme)
chain: SLSESGEYYTQRPPTPILDTVNYPIHMKNLSLKELKQLADELRSDTIFNVSKTGGHLGSSLGVVELTVALHYVFNAPQDRILWDVGHQSYPHKILTGRRDKMSTLRQTDGLAGFTKRSESEYDCFGTGHSSTTISAGLGMAVGRDLKGRNNNVIAVIGDGAMTAGQAYEAMNNAGYLDSDMIVILNDNRQVSLPTATLDGPVAPVGALSSALSRLQSNRPLRELREVAKGVTKQIGGPMHELAAKVDEYARGMISGSGSTLFEELGLYYIGPVDGHNIDDLIAILKEVRSTKTTGPVLIHVVTEKGRGYPYAERAADKYHGVAKFDPATGKQFKASAKTQSYTTYFAEALIAEAEADKDIVAIHAAMGGGTGMNLFHRRFPTRCFDVGIAEQHAVTFAAGLACEGIKPFCAIYSSFMQRAYDQVVHDVDLQKLPVRFAMDRAGLVGADGPTHCGAFDVTYMACLPNMVVMAPSDEAELFHMVATAAAIDDRPSCFRYPRGNGIGVELPAGNKGIPLEVGKGRILIEGERVALLGYGSAVQNCLDAAIVLESRGLQVTVADARFCKPLDHALIRSLAKSHEVLITVEEGSIGGFGSHVVQFMALDGLLDGKLKWRPIVLPDRYIDHGSPVDQLAEAGLTPSHIAATVFNILGQTREALEVMT
stoichiometry N [4]: 2
